# Measurements published in patent US20120045393A1 (priority 2009, published 2012).
# Where two headings read alike, the source gives them in different places. Non-standard residues stand in square brackets, D forms with d. Bpa = N[C@@H](Cc1ccc(C(=O)c2ccccc2)cc1)C(=O)O; DO3A10CM = not defined here; Bpa4 = non-natural residue; Damfe4 = not defined here; Amfe4 = not defined here; azaGly = NNC(=O)O; Sar = CNCC(=O)O
# Assays:
# [1] = test system: EFO-27 cells; experiment: Internalization/efflux studies in EFO-27 cells; assay type: cell-based, human; conditions: for Cell associated activity at 0 h % Intern / Cell associated activity at 2 h % Intern: internalized; for Cell associated activity at 0 h % Memb / Cell associated activity at 2 h % Memb: membrane bound; for Bound %: of added; for Bound: per well
# Method: Internalization/Efflux Studies: The internalization and efflux studies were carried out following the general procedure. Basically, ^177Lu-LHRH II or ^125I-LHRH II ([^125I-Tyr^8]BRU-2477) (75 uL, 3.0 μCi/mL) was added to the EFO-27 or PC-3 cells. The cells were incubated for 40 min at 37° C. The unbound radioactivity was washed off (4×). Following addition of fresh medium, the cells were further incubated for up to 2 h. At various time points (15, 30, 60 & 120 min) the distribution of radioactivity (membrane-bound, internalized, and efflux) was determined
# The internalization and efflux of several Lu-177 labeled LHRH II analogs in EFO-27 cells have been investigated. Basically, following pre-incubation of cells with ^177Lu-LHRH II samples, the binding buffer containing the ^177Lu was replaced with fresh media without complex. The extent of initial internalization (T=0), the amount of radioactive material that remained internalized and the efflux at 0-120 min were determined. The results are shown in FIGS. 21a-f and 22a-c and in Table 25.
# [2] = test system: LHRH binding sites on human ovarian cancer cells (EFO-27);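 note: Cell-associated radioactivity on confluent EFO-27 monolayers in 96-well plates, measured by microplate scintillation counting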
# [3] = target: LHRH receptor (LHRH binding sites) on EFO-27 human ovarian cancer cells (human); experiment: competition with [125I-Tyr8]BRU-2477 for binding to EFO-27 cells
# [4] = target: LHRH receptor (LHRH binding sites) on EFO-27 human ovarian cancer cells (human); experiment: competition with [125I-Tyr8]BRU-2477, EFO-27 cells
# [5] = target: LHRH binding sites on EFO-27 human ovarian cancer cells (human); experiment: competition with [125I-Tyr8]BRU-2477 on EFO-27 cells
EC50 [3],EC50 [4],EC50 [5],Molecule,also measured
3300 nM,–,–,DO3A10CM-Adoa-Sar-His-Trp-Ser-His-Darg-Trp-Bpa4-Pro-azaGly-NH2 (Seq111) (peptide),–
–,470 nM,470 nM,XRWSHXWXPX (DO3A10CM on N-terminus; AA1 Datdc2; AA6 Darg; AA8 Bpa4; AA10 azaGly-NH2) [BRU-3063],–
370 nM,370 nM,–,XXRWSHXWXPX (as printed: DO3A10CM-Dap-Dnal2-Arg-Trp-Ser-His-Darg-Trp-Bpa4-Pro-azaGly-NH2 (Dap is the linker)) [BRU-3096],–
–,350 nM,350 nM,XRWSHXWXPX (DO3A10CM on N-terminus; AA1 Ampha4; AA6 Darg; AA8 Bpa4; AA10 azaGly-NH2) [BRU-3094],–
–,380 nM,380 nM,XRWSHXWXPX (DO3A10CM on N-terminus; AA1 Qua3; AA6 Darg; AA8 Bpa4; AA10 azaGly-NH2) [BRU-3057],–
–,390 nM,390 nM,XRWSHXWXPX (DO3A10CM on N-terminus; AA1 Atdc2; AA6 Darg; AA8 Bpa4; AA10 azaGly-NH2) [BRU-3055],–
340 nM,340 nM,–,XRWSHXWX (as printed: Sar-R-W-S-H-Darg-W-Bpa4-Am2prd-DO3A10CM (C-terminal chelator)) [BRU-3117],–
140 nM,140 nM,–,XRWSHXWXP (as printed: DO3A10CM-Da48oa-Dnal2-Arg-Trp-Ser-His-Darg-Trp-Bpa4-Pro-Da15o3pt (Da48oa is the linker)) [BRU-3100],–
–,290 nM,290 nM,DO3A10CM-[Damfe4][Damfe4]WSH[dR]W[Bpa]P[azaGly]-NH2 (reading uncertain) [BRU-3095],–
1480 nM,–,–,XRWSHXWXP (as printed: Sar-R-W-S-H-Darg-W-Bpa4-P-NHNH-DO3A10CM (C-terminal chelator)) [BRU-3074],fold reduced binding against peptide 18 (BRU-3103) [5]: 5 to 6 fold
440 nM,440 nM,–,XXRWSHXWXPX (as printed: DO3A10CM-Dlys-Dnal2-Arg-Trp-Ser-His-Darg-Trp-Bpa4-Pro-azaGly-NH2 (Dlys is the linker)) [BRU-3099],–
840 nM,–,–,XRWSHXWXPP (as printed: Sar-R-W-S-H-Darg-W-Bpa4-P-P-Az23po-Da15o3pt-DO3A10CM (C-terminal chelator)) [BRU-3073],–
750 nM,–,–,XRWSHXWXP (as printed: Sar-R-W-S-H-Darg-W-Bpa4-P-Daprp13-DO3A10CM (C-terminal chelator)) [BRU-3076],–
170 nM,170 nM,–,XRWSHXWXP (as printed: Sar-R-W-S-H-Darg-W-Bpa4-P-Dae-DO3A10CM (C-terminal chelator)) [BRU-3103],–
230 nM,230 nM,–,XRWSHXWXP (as printed: Sar-R-W-S-H-Darg-W-Bpa4-P-Bampy26-DO3A10CM (C-terminal chelator)) [BRU-3080],–
590 nM,–,–,XHWSHXWXP (as printed: Sar-H-W-S-H-Darg-W-Bpa4-P-Dae-DO3A10CM (C-terminal chelator)) [BRU-3079],–
–,310 nM,310 nM,XRWSHXWXPX (DO3A10CM on N-terminus; AA1 Dbpa4; AA6 Darg; AA8 Bpa4; AA10 azaGly-NH2) [BRU-3071],–
–,380 nM,380 nM,XRWSHXWXPX (DO3A10CM on N-terminus; AA1 Thy; AA6 Darg; AA8 Bpa4; AA10 azaGly-NH2) [BRU-3069],–
400 nM,400 nM,–,XRWSHXWXP (as printed: Sar-R-W-S-H-Darg-W-Bpa4-P-Dapt15-DO3A10CM (C-terminal chelator)) [BRU-3085],–
200 nM,200 nM,–,XRWSHXWXP (as printed: Sar-R-W-S-H-Darg-W-Bpa4-P-Ampip2-DO3A10CM (C-terminal chelator)) [BRU-3102],–
–,430 nM,430 nM,XRWSHXWXPX (DO3A10CM on N-terminus; AA1 Dtyr; AA6 Darg; AA8 Bpa4; AA10 azaGly-NH2) [BRU-3054],–
450 nM,450 nM,–,KXRWSHXWXPX (as printed: DO3A10CM-Lys-Dnal2-Arg-Trp-Ser-His-Darg-Trp-Bpa4-Pro-azaGly-NH2 (Lys is the linker)) [BRU-3097],–
–,440 nM,440 nM,XRWSHXWXPX (DO3A10CM on N-terminus; AA1 Apsp; AA6 Darg; AA8 Bpa4; AA10 azaGly-NH2) [BRU-3056],–
1020 nM,–,–,XRWSHXWXP (as printed: Sar-R-W-S-H-Darg-W-Bpa4-P-M1daprp13-DO3A10CM (C-terminal chelator)) [BRU-3086],fold reduced binding against peptide 18 (BRU-3103) [5]: 5 to 6 fold

# Continued, molecule first:
Molecule,EC50 [3],EC50 [4],EC50 [5],also measured
"N=C(N)NCCC[C@H](NC(=O)[C@@H](Cc1ccc2ccccc2c1)NC(=O)CN1CCN(CC(=O)O)CCN(CC(=O)O)CCN(CC(=O)O)CC1)C(=O)N[C@@H](Cc1c[nH]c2ccccc12)C(=O)N[C@@H](CO)C(=O)N[C@@H](Cc1c[nH]cn1)C(=O)N[C@H](CCCNC(=N)N)C(=O)N[C@@H](Cc1c[nH]c2ccccc12)C(=O)N[C@@H](Cc1ccc(C(=O)c2ccccc2)cc1)C(=O)N1CCC[C@H]1C(=O)NCCOCCN [BRU-2968, DO3A10CM-Dna12-Arg-Trp-Ser-His-Darg-Trp-Bpa4-Pro-Da15o3pt]",–,–,–,Cell associated activity at 0 h % Efflux [1]: 4.9%; Cell associated activity at 0 h % Intern [1]: 14.1%; Cell associated activity at 0 h % Memb [1]: 80.8%; Cell associated activity at 2 h % Efflux [1]: 52.9%; Cell associated activity at 2 h % Intern [1]: 9.0%; Cell associated activity at 2 h % Memb [1]: 38.1%; Bound % [1]: 23.59%; Bound [1]: 68.8 fmol; EC50 [2]: 240 nM
N=C(N)NCCC[C@@H](NC(=O)[C@H](Cc1c[nH]cn1)NC(=O)[C@H](CO)NC(=O)[C@H](Cc1c[nH]c2ccccc12)NC(=O)[C@H](Cc1c[nH]cn1)NC(=O)[C@@H](Cc1ccc2ccccc2c1)NC(=O)CN1CCN(CC(=O)O)CCN(CC(=O)O)CCN(CC(=O)O)CC1)C(=O)N[C@@H](Cc1c[nH]c2ccccc12)C(=O)N[C@@H](Cc1ccc(C(=O)c2ccccc2)cc1)C(=O)N1CCC[C@H]1C(=O)NNC(N)=O [BRU-2666],–,–,–,"Cell associated activity at 0 h % Efflux [1]: 5.5%; Cell associated activity at 0 h % Intern [1]: 43.6%; Cell associated activity at 0 h % Memb [1]: 50.3%; Cell associated activity at 2 h % Efflux [1]: 80.6%; Cell associated activity at 2 h % Intern [1]: 10.0%; Cell associated activity at 2 h % Memb [1]: 9.5%; Bound % [1]: 12.20%; Bound [1]: 25.0 fmol; EC50 [2]: 470 nM; times more potent than the comparator analog ([2]; BRU-2441 vs BRU-2439, BRU-2666 vs Sar1 analog, BRU-3072 vs Pro9 analog): 2"
BRU-2756: DO3A10CM LHRH-II analog prepared in house for Lu labeling (DO3A10CM-[Sar][Amfe4]WSH[dR]W[Bpa4]P[azaGly]-NH2; reading uncertain),–,–,–,"Cell associated activity at 0 h % Efflux [1]: 7.7%; Cell associated activity at 0 h % Intern [1]: 42.0%; Cell associated activity at 0 h % Memb [1]: 51.5%; Cell associated activity at 2 h % Efflux [1]: 82.5%; Cell associated activity at 2 h % Intern [1]: 9.9%; Cell associated activity at 2 h % Memb [1]: 7.4%; Bound % [1]: 5.10%; Bound [1]: 10.2 fmol; EC50 ([2]; Table 5: modifications of amino acids at positions 1 and 2, in vitro binding on EFO-27 cells): 280 nM"
GXRWSHXWXPX (DO3A10CM-Gly (linker) on N-terminus; AA1 Tpi; AA6 Darg; AA8 Bpa4; AA10 azaGly-NH2) [BRU-3053],–,320 nM,320 nM,–
XRWSHXWXP (as printed: Sar-R-W-S-H-Darg-W-Bpa4-P-Maz4dahp17-DO3A10CM (C-terminal chelator)) [BRU-3045],210 nM,210 nM,–,–
XRWSHXWXP (as printed: Sar-R-W-S-H-Darg-W-Bpa4-P-Dabt14-DO3A10CM (C-terminal chelator)) [BRU-3041],360 nM,360 nM,–,–
XRWSHXWXP (as printed: Sar-R-W-S-H-Darg-W-Bpa4-P-bap14p-DO3A10CM (C-terminal chelator)) [BRU-3044],240 nM,240 nM,–,–
GGHWSHXWXPX (as printed: DO3A10CM-Gly-Gly-His-Trp-Ser-His-Darg-Trp-Bpa4-Pro-azaGly-NH2 (first Gly is the linker)) [BRU-2795],1370 nM,–,–,–
XHWSHXWXPX (as printed: DO3A10CM-Sar-His-Trp-Ser-His-Darg-Trp-Bpa4-Pro-azaGly-NH2) [BRU-2443],950 nM,–,950 nM,fold improvement of EC50 against the Tyr8 analog (BRU-2758) [5]: 10 fold
XXRWSHXWXPX (as printed: DO3A10CM-Gly-Abz4-Dnal2-Arg-Trp-Ser-His-Darg-Trp-Bpa4-Pro-azaGly-NH2 (Gly-Abz4 is the linker)) [BRU-3002],500 nM,500 nM,–,–
XXWSHXWXPX (DO3A10CM on N-terminus; AA1 Dnal2; AA2 Darg; AA6 Darg; AA8 Bpa4; AA10 azaGly-NH2) [BRU-3049],–,360 nM,360 nM,–
XXHWSHXWXPX (as printed: DO3A10CM-Ambz4-Sar-His-Trp-Ser-His-Darg-Trp-Bpa4-Pro-azaGly-NH2 (Ambz4 is the linker)) [BRU-2727],650 nM,–,–,–
GHWSHXWXPX (as printed: DO3A10CM-Gly-His-Trp-Ser-His-Darg-Trp-Bpa4-Pro-azaGly-NH2 (Gly is AA1)) [BRU-2733],1180 nM,–,–,–
XRWSHXWXPG (as printed: Dnal2-R-W-S-H-Darg-W-Bpa4-P-G-Dabt14-DO3A10CM (C-terminal chelator)) [BRU-2990],30200 nM,–,–,–
"XRWSHXWXP (as printed: DO3A10CM-Dnal2-Arg-Trp-Ser-His-Darg-Trp-Bpa4-Pro-Da15o3pt (C-terminal amide of 1,5-diamino-3-oxapentane)) [BRU-2968]",240 nM,240 nM,240 nM,–
GXHWSHXWXPX (as printed: DO3A10CM-Gly-Sar-His-Trp-Ser-His-Darg-Trp-Bpa4-Pro-azaGly-NH2 (Gly is the linker)) [BRU-2717],1530 nM,–,1550 nM,–
XRWSHXWXP (as printed: Ac-Dnal2-R-W-S-H-Darg-W-Bpa4-P-Da15o3pt-DO3A10CM (N-acetyl; C-terminal chelator)) [BRU-2992],470 nM,470 nM,–,–
XHWSHXWXPX (as printed: DO3A10CM-Adoa-Adoa-Sar-His-Trp-Ser-His-Darg-Trp-Bpa4-Pro-azaGly-NH2 (Adoa-Adoa is the linker)) [BRU-2896],3200 nM,–,–,–
XRWSHXWXP (as printed: Sar-R-W-S-H-Darg-W-Bpa4-P-Da18o36oc-DO3A10CM (C-terminal chelator)) [BRU-3043],330 nM,330 nM,–,–
XRWSHXWXP (as printed: Sar-R-W-S-H-Darg-W-Bpa4-P-Da15o3pt-DO3A10CM (C-terminal chelator)) [BRU-3039],280 nM,280 nM,–,–
XRWSHXWXP (as printed: Dnal2-R-W-S-H-Darg-W-Bpa4-P-Da15o3pt-DO3A10CM (C-terminal chelator)) [BRU-2991],210 nM,210 nM,–,–
XRWSHXWXP (as printed: Dnal2-R-W-S-H-Darg-W-Bpa4-P-Dabt14-DO3A10CM (C-terminal chelator)) [BRU-3042],200 nM,200 nM,–,–
